How the values were obtained:
[1] = molecular target: ctXPB (from E. coli) (Chaetomium thermophilum)
[2] = tested on: ctXPB;ctp52;ctp8 (Chaetomium thermophilum;Chaetomium thermophilum;Chaetomium thermophilum); test: fluorescence polarization; conditions: ctp52/ctp8 2:1 to ctXPB; Kd in nM XPB; 2.5 mM MgCl2, no ATP stated; 20 mM HEPES pH 7.5, 10 mM KCl, 2.5 mM MgCl2, 1 mM TCEP, 6 nM DNA, room temperature
[3] = tested on: ctXPB (Chaetomium thermophilum); test: fluorescence polarization; conditions: 20 mM HEPES pH 7.5, 10 mM KCl, 2.5 mM MgCl2, 1 mM TCEP, 6 nM DNA, room temperature
[4] = molecular target: ctXPB (from E. coli) (Chaetomium thermophilum); remark: listed apart in the source
[5] = molecular target: ctXPB (from E. coli) (Chaetomium thermophilum); remark: listed apart in the source

Substance | activation of ctXPB's ATPase by the ctp52/ctp8 variant, percent of wild type ctp52/ctp8 (% of wild type) [1] | other results
ctp52_F387K/ctp8 complex | 46 | 
ctp52_Y365A/ctp8 complex | 53 | 
AGCTACCATGCCTGCACGAATTAAGCAATTCGTAATCATGGTCATAGC (double strand) [Cy3-dsDNA 48 bp] |  | Kd [2]: 51 nM; Kd [3]: 77 nM
ctp52 (natural protein) |  | ATPase activity of ctXPB on titration of the co-purified ctp52/ctp34 complex to a fixed amount of ctXPB (Vmax 9.3 μmol ATP*l^−1*min^−1); EC50 [4]: 178 nM
ctp52/ctp8 complex (wild type, co-purified) |  | ATPase activity of ctXPB on titration of the co-purified ctp52/ctp8 complex to a fixed amount of ctXPB (full activation 20.1 μmol ATP*l^−1*min^−1); EC50 [4]: 153 nM; decrease of the dsDNA-activated ATPase activity of ctXPB (from 58.8 to 18.9 μmol ATP*l^−1*min^−1) on titration of ctp52/ctp8 to an equimolar ctXPB/DNA complex; EC50 [5]: 138 nM
ctp52_M390E/ctp8 complex | 57 | 

More lines, main results first:

activation of ctXPB's ATPase by the ctp52/ctp8 variant, percent of wild type ctp52/ctp8 (% of wild type) [1] | Substance | other results
116 | ctp52_R386L/ctp8 complex | 
5 | ctp52_E359K/ctp8 complex | 
6 | ctp52_E359K/R363E / ctp8 complex | 
134 | ctp52_R363E/ctp8 complex | 

— paper PMC7708078, “How to limit the speed of a motor: the intricate regulation of the XPB ATPase and translocase in TFIIH” (Nucleic Acids Research, 2020)
